These results are taken from publication PMC5709735, “Real‐time detection of condensin‐driven DNA compaction reveals a multistep binding mechanism” (The EMBO Journal, 2017).

The series deals with T1, Nc1ncnc2c1ncn2[C@@H]1O[C@H](COP(=O)(O)OP(=O)(O)OP(=O)(O)O)[C@@H](O)[C@H]1O.
T1 construct: pentameric holocomplex overexpressed in budding yeast from galactose-inducible promoters; His12 tag on Brn1, triple StrepII tag on Smc4; gel-filtered monomeric complexes; with Condensin complex subunit 2; Condensin complex subunit 1; Condensin complex subunit 3
Nature of the series: single-molecule magnetic tweezers, DNA compaction rate vs ATP, Michaelis-Menten fit. In kind it is biochemical, Saccharomyces cerevisiae. Conditions: 8.6 nM condensin, tethered 20-kb DNA under constant force, 10 mM HEPES-NaOH pH 7.9, 125 mM NaCl, 5 mM MgCl2, 1 mM DTT, error is 95% confidence interval, read-out is compaction rate, not ATP turnover.

As a reminder, the Km is the concentration of substrate that gives half-maximal velocity. As for “S. cerevisiae condensin holocomplex (Smc2–Smc4–Brn1–Ycs4–Ycg1) (Saccharomyces cerevisiae S288C)”, the Michaelis-Menten constant (Km) came out at 1400 ± 1500 µM.
